Where a chain is given by its changes, count along the chain named.
T1: hIL-18Ra ECD-Fc (human, UniProt Q13478)
T1 chain: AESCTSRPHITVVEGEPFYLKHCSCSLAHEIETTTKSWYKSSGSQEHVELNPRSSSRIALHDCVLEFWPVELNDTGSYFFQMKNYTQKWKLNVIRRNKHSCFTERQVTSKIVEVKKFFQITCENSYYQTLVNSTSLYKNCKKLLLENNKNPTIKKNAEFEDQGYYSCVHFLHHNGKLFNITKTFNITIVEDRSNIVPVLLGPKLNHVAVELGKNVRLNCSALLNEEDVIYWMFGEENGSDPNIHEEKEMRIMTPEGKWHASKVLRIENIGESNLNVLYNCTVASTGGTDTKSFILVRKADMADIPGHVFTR

B1: WM2 (designed binder)
chain: YFPKLRSKLSVIRNLNDQVLFIDQGNRPLFEDMTDSDCRDNAPRTIFIISMYKDSQPRGMAVTISVKCEKISTLSCENKIISFKEMNPPDNIKDTESDIIFFQRSVPGHDNKMQFESSSYEGYFLACEKERDLFKLILKKEDELGDRSIMFTVQNED
B2: M6 (designed binder)
chain: B1 chain with D54W, Q56T, N91V, E96K, R104T
B3: M36 (designed binder)
chain: B1 chain with R6S, D54A, Q56D, P57Q, N91G, E96K
B4: WM8 (designed binder)
chain: B1 chain with N91S, E96K

Target: T1, hIL-18Ra ECD-Fc
Experiment: BLI

Kd, > 1000 nM:
B1
B2
B3
B4
